CN112794900A (2ND XIANGYA HOSPITAL CENTRAL SOUTH UNIV, dated 2021)

Experiments:
[1] = target: T1, cBIN1 Isoform II3 (cBIN1 exon 1-12&18-20) (UniProt O00499-7 1-439); test: ELISA, antigen coated at 0.1μg/well
T1 construct: domain: cBIN1 exon 1-12&18-20; Tags are unknown; also called 缺失exon13的cBIN1 Isoform II3蛋白
T1 sequence (looked up): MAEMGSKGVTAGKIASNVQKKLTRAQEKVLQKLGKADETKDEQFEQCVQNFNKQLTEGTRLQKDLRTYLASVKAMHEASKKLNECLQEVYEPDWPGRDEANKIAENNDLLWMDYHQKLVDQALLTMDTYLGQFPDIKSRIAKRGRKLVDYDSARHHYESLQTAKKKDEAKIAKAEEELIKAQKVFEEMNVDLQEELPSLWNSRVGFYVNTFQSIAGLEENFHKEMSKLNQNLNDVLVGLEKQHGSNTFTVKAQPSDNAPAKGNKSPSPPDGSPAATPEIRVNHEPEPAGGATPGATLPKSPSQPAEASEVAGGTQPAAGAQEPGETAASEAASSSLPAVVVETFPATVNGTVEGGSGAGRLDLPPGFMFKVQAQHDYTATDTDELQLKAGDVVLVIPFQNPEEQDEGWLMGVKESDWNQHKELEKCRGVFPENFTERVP

[2] = target: T2, cBIN1 Isoform II2 (cBIN1 exon1-13&18-20) (UniProt O00499-6 1-482); test: ELISA, antigen coated at 0.1μg/well, OD450
T2 construct: domain: cBIN1 exon1-13&18-20; tags are unknown; also called 含有exon13的cBIN1 Isoform II2蛋白
T2 sequence (looked up): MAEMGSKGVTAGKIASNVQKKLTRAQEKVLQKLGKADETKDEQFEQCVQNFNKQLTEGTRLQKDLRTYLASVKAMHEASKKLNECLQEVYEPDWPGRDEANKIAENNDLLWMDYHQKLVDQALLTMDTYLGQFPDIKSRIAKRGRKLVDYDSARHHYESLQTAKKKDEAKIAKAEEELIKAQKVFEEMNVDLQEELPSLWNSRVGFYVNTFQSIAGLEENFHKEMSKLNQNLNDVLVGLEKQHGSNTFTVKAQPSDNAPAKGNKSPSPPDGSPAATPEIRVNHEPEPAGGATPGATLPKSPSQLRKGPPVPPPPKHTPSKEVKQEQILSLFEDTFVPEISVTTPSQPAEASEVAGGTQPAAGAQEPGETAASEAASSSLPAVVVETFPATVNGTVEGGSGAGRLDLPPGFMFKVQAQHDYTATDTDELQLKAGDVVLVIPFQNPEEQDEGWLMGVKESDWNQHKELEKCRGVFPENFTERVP

EC50 [2]: 0.058 µg/mL
B1: 鼠源抗体 8G1-D7-F5 (抗人源cBIN1 exon13抗体) (antibody, V domains shown)
VH: EVQLQQSGAELVRPGASVKLSCTTSGFNIKDSYMHWVKQRPEQGLEWIGRIDPEDDDAVYAPKFQDRATMTADTSSNTAYLHLSSLTSDDTAVYYCTTSTLVATPWFFDVWGTGTTVTVSS
VL: DIQMTQTTSSLSASLGDRVTISCSASQDINNYLNWYQQKPDGTVKLLIYYTSTLHSGVPSRFSGSGSGTDYSLTITNLEPEDFATYYCQQYTHNLPWTFGGGTKLEIK
notes: Mouse hybridoma antibody; The printed light chain FR3 may lack a leading G; also called cBIN1抗体
binding result [1]: no binding (tested: 10μg/ml起始浓度, 三倍稀释, 11个检测点)
